As a reminder, the Kd is a measure of binding affinity in units of concentration. A word on the koff: it is a measure of how fast the partners let go of each other. In general, kon refers to the rate constant with which the complex forms.

This note sets out measurements from publication PMC9968394.

Experiment in all cases: SPR; Biacore; anti-OGT VNARs diluted to 100 nM; recombinant ncOGT in PBS at 50, 100, 200, 400 and 800 nM introduced successively; binding 120 s, dissociation 200 s in PBS; Langmuir model fit; who was immobilised is not said
For test [1], the target named is anti-OGT VNAR 2D9 (Chiloscyllium plagiosum (whitespotted bambooshark)).
Test [2] concerns the target anti-OGT VNAR 3F7 (Chiloscyllium plagiosum (whitespotted bambooshark)).
Test [3] deals with anti-OGT VNAR 4G2 (Chiloscyllium plagiosum (whitespotted bambooshark)).

B1: recombinant ncOGT protein (O-GlcNAc transferase) (enzyme)
chain: MASSVGNVADSTEPTKRMLSFQGLAELAHREYQAGDFEAAERHCMQLWRQEPDNTGVLLLLSSIHFQCRRLDRSAHFSTLAIKQNPLLAEAYSNLGNVYKERGQLQEAIEHYRHALRLKPDFIDGYINLAAALVAAGDMEGAVQAYVSALQYNPDLYCVRSDLGNLLKALGRLEEAKACYLKAIETQPNFAVAWSNLGCVFNAQGEIWLAIHHFEKAVTLDPNFLDAYINLGNVLKEARIFDRAVAAYLRALSLSPNHAVVHGNLACVYYEQGLIDLAIDTYRRAIELQPHFPDAYCNLANALKEKGSVAEAEDCYNTALRLCPTHADSLNNLANIKREQGNIEEAVRLYRKALEVFPEFAAAHSNLASVLQQQGKLQEALMHYKEAIRISPTFADAYSNMGNTLKEMQDVQGALQCYTRAIQINPAFADAHSNLASIHKDSGNIPEAIASYRTALKLKPDFPDAYCNLAHCLQIVCDWTDYDERMKKLVSIVADQLEKNRLPSVHPHHSMLYPLSHGFRKAIAERHGNLCLDKINVLHKPPYEHPKDLKLSDGRLRVGYVSSDFGNHPTSHLMQSIPGMHNPDKFEVFCYALSPDDGTNFRVKVMAEANHFIDLSQIPCNGKAADRIHQDGIHILVNMNGYTKGARNELFALRPAPIQAMWLGYPGTSGALFMDYIITDQETSPAEVAEQYSEKLAYMPHTFFIGDHANMFPHLKKKAVIDFKSNGHIYDNRIVLNGIDLKAFLDSLPDVKIVKMKCPDGGDNADSSNTALNMPVIPMNTIAEAVIEMINRGQIQITINGFSISNGLATTQINNKAATGEEVPRTIIVTTRSQYGLPEDAIVYCNFNQLYKIDPSTLQMWANILKRVPNSVLWLLRFPAVGEPNIQQYAQNMGLPQNRIIFSPVAPKEEHVRRGQLADVCLDTPLCNGHTTGMDVLWAGTPMVTMPGETLASRVAASQLTCLGCLELIAKNRQEYEDIAVKLGTDLEYLKKVRGKVWKQRISSPLFNTKQYTMELERLYLQMWEHYAAGNKPDHMIKPVEVTESA
Regarding B1, in test [1], the equilibrium dissociation constant (Kd) is 35.5 nM, the koff came to 0.000675 s⁻¹ and the kon worked out at 19000 M⁻¹ s⁻¹. Besides, in test [2], the Kd is 53.4 nM, the off-rate constant (koff) is 0.00106 s⁻¹ and the association rate constant (kon) turned out to be 19800 M⁻¹ s⁻¹. Besides, in test [3], the dissociation constant (Kd) amounted to 89.7 nM and the koff turned out to be 0.00076 s⁻¹.
